In patent US20100092489A1 (Genmab, published 2010):

Assays:
[1] = target: T1, human CD38 expressed on cells (CHO-CD38, Daudi-luc, fresh multiple myeloma tumor cells) (human, UniProt P28907 1-300); assay: cell-based or functional assay
[2] = target: T1, human CD38 expressed on cells …; assay: cell-based or functional assay; remark: listed apart in the source
[3] = target: T1, human CD38 expressed on cells …; assay: flow cytometry on Daudi-luc cells, rabbit anti-human IgG-FITC
Method: (§1) After harvesting and counting, Daudi-luc cells, CHO cells transfected with CD38 and control CHO cells were resuspended in PBS (1×10⁶ cells/ml). Then, cells were put in 96-well V-bottom plates (100 μl/well) and washed twice in PBS-BSA (PBS supplemented with 0.1% BSA and 0.02% Na-azide). Thereafter, 50 μl antibody solution in PBS-BSA was added to the cells (4° C., 30 min). After washing three times in PBS-BSA, 50 μl (1:400 dilution) of rabbit anti-human IgG-FITC in PBS-BSA was added (4° C. in the dark, 30 min). Cells were washed three times and specific binding of CD38-antibodies to CHO-CD38 and Daudi-luc cells was detected by flow cytometry.

[4] = target: T1, human CD38 expressed on cells …; assay: flow cytometry on fresh MM tumor cells, FITC-labeled antibody
[5] = target: T1, human CD38 expressed on cells …; assay: flow cytometry on CHO-CD38 cells, rabbit anti-human IgG-FITC
Method: as §1

[6] = target: T1, human CD38 expressed on cells …; assay: cell-based or functional assay; remark: listed apart in the source
[7] = target: T1, human CD38 expressed on cells …; assay: cell-based or functional assay; remark: listed apart in the source
[8] = target: T2, HA-CD38 (HA-tagged extracellular domain of human CD38, wild type) (human, UniProt P28907 43-300); assay: SPR, Biacore 3000, 25° C., antibody immobilized on CM-5 chip, HA-tagged CD38 flowed over; mean of 3 experiments ± SD
T2 construct: The signal peptide SPHMM of the construct is not part of the secreted protein; also called HA-tagged CD38; wt human CD38; not shown: N-terminal HA-tag introduced by PCR primer cd38forha

Binder	EC50 CD38-CHO, CDC [1] [µg/mL]	EC50 Daudi-luc, CDC [1] [µg/mL]	EC50 Daudi-luc, ADCC (51Cr release) [2] [µg/mL]	EC50 MM cells, ADCC (51Cr release) [2] [µg/mL]	EC50 [3] [µg/mL]	EC50 [4] [µg/mL]	EC50 [5] [µg/mL]	EC50, CDC of CHO-CD38 cells (n = 2) [6] [µg/mL]	Log EC50, ADCC of Daudi target cells (n=5) [7]	Ka [8] [M⁻¹]	Kd [8] [nM]
antibody -024 (antibody, human IgG1, V domains shown, Human monoclonal IgG1 antibody; Recombinant form made with human IgG1 heavy chain constant region (pConG1f0.4) and kappa light chain constant region (pConKappa0.4)) VH: EVQLVQSGAEVKKPGESLKISCKGSGYSFSNYWIGWVRQMPGKGLEWMGIIYPHDSDARYSPSFQGQVTFSADKSISTAYLQWSSLKASDTAMYYCARHVGWGSRYWYFDLWGRGTLVTVSS VL: EIVLTQSPATLSLSPGERATLSCRASQSVSSYLAWYQQKPGQAPGLLIYDASNRASGIPARFSGSGSGTDFTLTISSLEPEDFAVYYCQQRSNWPLTFGGGTKVEIK	0.24	> 90	0.0097	0.056	0.05	0.02	0.08	–	–	–	–
antibody -003 (antibody, human IgG1, V domains shown, Human monoclonal IgG1 antibody; Recombinant form made with human IgG1 heavy chain constant region (pConG1f0.4) and kappa light chain constant region (pConKappa0.4); FITC-labelled in some assays; also called HuMab -003; -003-2F5) VH: not shown VL: DIQMTQSPSSLSASVGDRVTITCRASQGISSWLAWYQQKPEKAPKSLIYAASSLQSGVPSRFSGSGSGTDFTLTISSLQPEDFATYYCQQYNSYPRTFGQGTKVEIK	3.14	> 90	0.009	0.027	0.26	0.56	0.54	4.5	1.17	1.14e+09	0.885
